We go through eight molecules from patent publication US20220380463A1 (Adimab, published 2022).

Assay [1] has as its target T1, Cynomolgus CD3εδ Fc heterodimer (Cy CD3ε Fc / CD3δ Fc-HIS) (cynomolgus, UniProt Q95LI8 22-100).
T1 chain 1: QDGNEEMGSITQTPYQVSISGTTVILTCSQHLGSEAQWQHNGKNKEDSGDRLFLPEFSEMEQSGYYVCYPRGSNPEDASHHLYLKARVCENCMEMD
T1 chain 2: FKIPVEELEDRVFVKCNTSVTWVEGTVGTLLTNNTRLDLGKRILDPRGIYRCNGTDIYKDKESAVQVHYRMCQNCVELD
Nature of the assay: BLI (Octet), IgG on AHC sensor, pH 6.0. Background: In BLI a coated tip is dipped into the sample, and binding shifts an interference pattern.

Assay [2] addresses T1, Cynomolgus CD3εδ Fc heterodimer (Cy …). Nature of the assay: BLI (Octet), IgG on AHC sensor, pH 7.4.

Substitutions are numbered along the chain they refer to.

B1: SAD10320_P01_B03 (ADI-57354) (antibody, V domains shown)
VH: QVQLVQSGAEVKKPGASVKVSCKASGFNIKDYYMHWVRQAPGQRLEWMGWIDLENANTIYDAKFQGRVTITRDTSASTAYMELSSLRSDDTAVYYCARDQHGRYFYDVWGQGTLVTVSS
VL: DIVMTQSPDSLAVSLGERATINCKSSQSLLNARTGKNYLAWYQQKPGQPPKLLIYWASTRESGVPDRFSGSGSGTDFTLTISSLQAEDVAVYYCKQSYSRRTFGGGTKVEIK
notes: IgG; also called Ab61
The koff is a measure of how fast the partners let go of each other. Read a low koff as slow dissociation. As usually defined, the Kd is a measure of binding affinity in units of concentration. The term kon denotes the rate constant with which the complex forms. The molecule B1 registered an off-rate constant (koff) in assay [1] of 0.0204 s⁻¹. In assay [2], the affinity, expressed as Kd, was 75.1 nM; the koff was 0.0159 s⁻¹; the association rate constant (kon) worked out at 212000 M⁻¹ s⁻¹.

B2: LAD9954_P01_B02 (ADI-57438) (antibody, V domains shown)
VH: B1 VH with D89E, Q100A, H101Y
VL: B1 VL with N31H, K36H
notes: IgG; also called Ab168
B2 came in with a koff in assay [1] of 0.0303 s⁻¹. Moreover, in assay [2], binding was characterised by a dissociation constant (Kd) of 33.9 nM, the koff amounted to 0.0107 s⁻¹ and the kon came out at 316000 M⁻¹ s⁻¹.

B3: LAD9955_P01_G02 (ADI-57439) (antibody, V domains shown)
VH: B1 VH with D89E, Q100A, H101Y
VL: B1 VL with N31H, Y38H
notes: IgG; also called Ab170
The molecule B3 registered a koff in assay [1] of 0.0282 s⁻¹. In assay [2], this molecule came in with a Kd of 127 nM, a koff of 0.0187 s⁻¹ and a kon of 147000 M⁻¹ s⁻¹.

B4: LAD9964_P01_C07 (ADI-57444) (antibody, V domains shown)
VH: B1 VH with D89E, Q100A, H101Y
VL: B1 VL with G35H
B4 yielded a koff in assay [1] of 0.000637 s⁻¹. In addition, in assay [2], the Kd is 4.71 nM, the koff worked out at 0.00146 s⁻¹ and the kon is 310000 M⁻¹ s⁻¹.

B5: LAD9959_P01_E04 (ADI-57441) (antibody, V domains shown)
VH: B1 VH with D89E, Q100A, H101Y
VL: B1 VL with G35H, K36H
notes: IgG; also called Ab172
Take B5: the koff in assay [1] is 0.00174 s⁻¹. In assay [2], this molecule came in with a Kd of 89.6 nM, a koff of 0.0189 s⁻¹ and a kon of 210000 M⁻¹ s⁻¹.

B6: LAD9953_P01_H01 (ADI-57437) (antibody, V domains shown)
VH: B1 VH with D89E, Q100A, H101Y
VL: B1 VL with N31H, G35H
notes: IgG; also called Ab167
On to B6, for which the koff in assay [1] amounted to 0.0176 s⁻¹. In assay [2], this molecule registered an equilibrium dissociation constant (Kd) of 86.7 nM, a koff of 0.0209 s⁻¹ and a kon of 242000 M⁻¹ s⁻¹.

B7: SAD10320_P02_F06 (ADI-57370) (antibody, V domains shown)
VH: B1 VH with E46A, D89E, Q100A, H101Y, Y104F, F105H
VL: B1 VL with T34P
notes: IgG; also called Ab87
In assay [1], B7 showed a koff of 0.017 s⁻¹. In assay [2], this molecule yielded a Kd of 141 nM, a koff of 0.0166 s⁻¹ and a kon of 118000 M⁻¹ s⁻¹.

B8: SAD10320_P02_G06 (ADI-57371) (antibody, V domains shown)
VH: B1 VH with E46D, D89E, Q100A, H101Y, Y104H
VL: B1 VL with G35R, K36T
notes: IgG; also called Ab88
In assay [1], B8 displayed a dissociation rate constant (koff) of 0.00387 s⁻¹. In assay [2], this molecule registered a Kd of 64.8 nM, a koff of 0.0219 s⁻¹ and a kon of 338000 M⁻¹ s⁻¹.
